From PMC3441732, “Marburg Virus VP35 Can Both Fully Coat the Backbone and Cap the Ends of dsRNA for Interferon Antagonism”

How the values were obtained:
[1] = target: T1, MARV VP35 RBD (Marburg virus, UniProt P35259 205-329); test: ITC; 10 mM Tris pH 8.0, 200 mM NaCl, 2 mM TCEP ([…], and ITC); temperature not stated; details: protein: recombinant, tags: 6xHis (pET46b), TEV-cleaved, chain copies: 4, label: 5'-32P sense strand (dot blot), none in ITC
[2] = target: T2, RESTV VP35 RBD (Reston virus (RESTV), UniProt Q8JPY0 205-329); test: dual-filter dot blot; Hill 2.6±0.2; 10 mM Tris pH 8.0, 200 mM NaCl, 2 mM TCEP ([…], and ITC); temperature not stated; details: protein: recombinant; tags: 6xHis, cleaved; chain copies: 2; label: 5'-32P sense strand (dot blot); none in ITC; blunt
T2 sequence: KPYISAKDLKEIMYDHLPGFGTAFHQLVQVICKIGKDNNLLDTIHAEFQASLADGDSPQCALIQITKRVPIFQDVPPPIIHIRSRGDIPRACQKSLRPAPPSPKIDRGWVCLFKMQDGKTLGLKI

[3] = target: T3, EBOV VP35 RBD (Ebola virus, UniProt Q05127 216-340); test: dual-filter dot blot; Hill 2.9±0.3; 10 mM Tris pH 8.0, 200 mM NaCl, 2 mM TCEP ([…], and ITC); temperature not stated; details: protein: recombinant; tags: 6xHis, cleaved; label: 5'-32P sense strand (dot blot); none in ITC; blunt
T3 sequence (Q05127 216-340): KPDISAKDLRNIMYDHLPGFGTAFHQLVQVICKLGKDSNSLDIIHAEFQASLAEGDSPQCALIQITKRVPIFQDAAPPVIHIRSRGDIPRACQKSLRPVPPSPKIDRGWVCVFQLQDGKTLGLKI

[4] = target: T1, MARV VP35 RBD; test: dual-filter dot blot; Hill 3.5±0.3; 10 mM Tris pH 8.0, 200 mM NaCl, 2 mM TCEP ([…], and ITC); temperature not stated; details: protein: recombinant; tags: 6xHis (pET46b), TEV-cleaved; chain copies: 4; label: 5'-32P sense strand (dot blot); none in ITC; blunt
[5] = target: T1, MARV VP35 RBD; test: dual-filter dot blot; Hill 2.1±0.2; 10 mM Tris pH 8.0, 200 mM NaCl, 2 mM TCEP ([…], and ITC); temperature not stated; details: protein: recombinant; tags: 6xHis (pET46b), TEV-cleaved; chain copies: 4; label: 5'-32P sense strand
[6] = target: T1, MARV VP35 RBD; test: X-ray crystal structure; 10 mM Tris pH 8.0, 200 mM NaCl, 2 mM TCEP ([…], and ITC); temperature not stated; details: protein: recombinant; tags: 6xHis (pET46b), TEV-cleaved; chain copies: 4
[7] = target: T1, MARV VP35 RBD; test: dual-filter dot blot; Hill 3.1±0.2; 10 mM Tris pH 8.0, 200 mM NaCl, 2 mM TCEP ([…], and ITC); temperature not stated; details: protein: recombinant; tags: 6xHis (pET46b), TEV-cleaved; chain copies: 4; label: 5'-32P sense strand (dot blot); none in ITC
[8] = target: T2, RESTV VP35 RBD; test: dual-filter dot blot; Hill 3.4±0.4; 10 mM Tris pH 8.0, 200 mM NaCl, 2 mM TCEP ([…], and ITC); temperature not stated; details: protein: recombinant; tags: 6xHis, cleaved; chain copies: 2; label: 5'-32P sense strand (dot blot); none in ITC
[9] = target: T3, EBOV VP35 RBD; test: dual-filter dot blot; Hill 3.6±0.4; 10 mM Tris pH 8.0, 200 mM NaCl, 2 mM TCEP ([…], and ITC); temperature not stated; details: protein: recombinant; tags: 6xHis, cleaved; label: 5'-32P sense strand (dot blot); none in ITC

T1 sequence (P35259 205-329): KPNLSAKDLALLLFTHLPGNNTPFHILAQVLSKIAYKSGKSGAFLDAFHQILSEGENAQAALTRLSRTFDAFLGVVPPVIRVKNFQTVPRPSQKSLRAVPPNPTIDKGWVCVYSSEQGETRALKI

B1: 18-bp blunt-ended dsRNA (dsRNA)
RNA 1: AGAAGGAGGGAGGGAGGA
RNA 2: UCCUCCCUCCCUCCUUCU
[1]; blunt
  Kd: 28.6 ± 16.5 µM
[2]
  Kd: 2.5 ± 0.1 µM
[3]
  Kd: 1.9 ± 0.1 µM
[4]
  Kd: 8.4 ± 0.2 µM

B2: 18-bp dsRNA with 5' overhang (dsRNA)
RNA 1: GAGAGAAGGAGGGAGGGAGGA
RNA 2: UCCUCCCUCCCUCCUUCUCUC
[5]
  Kd: 4.4 ± 0.3 µM

B3: 12-bp palindromic dsRNA (crystal) (dsRNA)
RNA 1: CUAGACGUCUAG
RNA 2: CUAGACGUCUAG
[6]
  binding result: binds

B4: 18-bp dsRNA with 3' overhang (dsRNA)
RNA 1: AGAAGGAGGGAGGGAGGAGAG
RNA 2: CUCUCCUCCCUCCCUCCUUCU
[1]
  Kd: 3.4 µM
[7]
  Kd: 9.3 ± 0.2 µM
[8]
  Kd: 6 ± 0.2 µM
[9]
  Kd: 17.1 ± 0.7 µM
